From US20200332307

Columns and labels:
[1] = system: TALE1 synthetic transcription factor (TAL DNA-binding domain targeting ZmWUS promoter + activation domain) (synthetic (Xanthomonas TAL effector)?); assay: cell_activity; conditions: endogenous WUS mRNA by qRT-PCR in maize protoplasts, 24 h
[2] = system: TALE5 synthetic transcription factor (TAL DNA-binding domain targeting ZmBBM promoter + activation domain) (synthetic (Xanthomonas TAL effector)?); assay: cell_activity; conditions: endogenous BBM mRNA by qRT-PCR in maize protoplasts, 24 h; text p298 cites SEQ ID NO: 218 but FIG. 3 legend assigns TALE4-6 to SEQ 270-272

| Sequence | activity (fold induction) [1] | activity (fold induction) [2] |
| --- | --- | --- |
| TCCCGCTCTCGCTCTCTGC (double strand) [TALE1 target site in ZmWUS promoter] | 60 | – |
| TCCTCGAATCATTCTAAGAAGAAAC (double strand) [TALE5 target site in ZmBBM promoter] | – | 490 |
